This note sets out measurements from publication PMC5748987 (The Journal of Cell Biology, 2018).

The chains are these.
B1: GST-xAurA (full length, amino acids 1–407) (enzyme)
chain: MERAVKENHKPSNVKIFHPMTEGAKRIPVNQPQSTQFRPPGTAVSAQRILGPSNVPQRVLAQAQKPILSSQKPTTQIPLRPATQGHQSSKPQGPNENRNPQQTSHSSTPNVEKKGSTDQGKTSAVPKEEGKKKQWCLEDFEIGRPLGKGKFGNVYLARERESKFILALKVLFKSQLEKAGVEHQLRREVEIQSHLRHPNILRLYGYFHDASRVYLILDYAPGGELFRELQKCTRFDDQRSAMYIKQLAEALLYCHSKKVIHRDIKPENLLLGSNGELKIADFGWSVHAPSSRRTTLCGTLDYLPPEMIEGRMHDETVDLWSLGVLCYEFLVGKPPFETDTHQETYRRISKVEFQYPPYVSEEARDLVSKLLKHNPNHRLPLKGVLEHPWIIKNSQLKKKDEPLPGAQ
B2: xAurA (cleaved from mCherry-xAurA) (enzyme)
chain: B1 chain
B3: GST-xAurA(127–407) (domain or fragment)
chain: KEEGKKKQWCLEDFEIGRPLGKGKFGNVYLARERESKFILALKVLFKSQLEKAGVEHQLRREVEIQSHLRHPNILRLYGYFHDASRVYLILDYAPGGELFRELQKCTRFDDQRSAMYIKQLAEALLYCHSKKVIHRDIKPENLLLGSNGELKIADFGWSVHAPSSRRTTLCGTLDYLPPEMIEGRMHDETVDLWSLGVLCYEFLVGKPPFETDTHQETYRRISKVEFQYPPYVSEEARDLVSKLLKHNPNHRLPLKGVLEHPWIIKNSQLKKKDEPLPGAQ
B4: GST-xBuGZ(8–58) (domain or fragment)
chain: not shown

Assay [1] concerns the target T1, YFP-xBuGZ (full length) (Xenopus laevis, UniProt Q7ZXV8 1-452). In words: pull-down.
Assay [2] deals with T1, YFP-xBuGZ (full length). Nature of the assay: co-sedimentation.
The next assay has as its target YFP-xBuGZΔN7 (Xenopus laevis, UniProt Q7ZXV8 8-452). In words: pull-down.
Assay [3] deals with B2. In words: pull-down.

T1 sequence (Q7ZXV8 whole entry): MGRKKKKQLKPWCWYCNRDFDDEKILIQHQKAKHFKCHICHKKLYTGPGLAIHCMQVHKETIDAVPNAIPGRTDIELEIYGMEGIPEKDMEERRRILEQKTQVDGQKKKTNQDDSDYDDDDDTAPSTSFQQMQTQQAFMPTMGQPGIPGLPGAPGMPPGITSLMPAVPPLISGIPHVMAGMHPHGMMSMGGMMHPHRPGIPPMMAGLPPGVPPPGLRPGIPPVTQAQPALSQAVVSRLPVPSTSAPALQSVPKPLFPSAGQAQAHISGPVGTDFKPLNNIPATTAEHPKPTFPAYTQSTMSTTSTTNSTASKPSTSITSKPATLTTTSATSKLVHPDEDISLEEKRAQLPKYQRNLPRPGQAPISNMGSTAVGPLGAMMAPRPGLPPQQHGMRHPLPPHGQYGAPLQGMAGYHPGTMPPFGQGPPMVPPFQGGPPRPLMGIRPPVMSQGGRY
Sequence of YFP-xBuGZΔN7 (Q7ZXV8 8-452, stated change not applied): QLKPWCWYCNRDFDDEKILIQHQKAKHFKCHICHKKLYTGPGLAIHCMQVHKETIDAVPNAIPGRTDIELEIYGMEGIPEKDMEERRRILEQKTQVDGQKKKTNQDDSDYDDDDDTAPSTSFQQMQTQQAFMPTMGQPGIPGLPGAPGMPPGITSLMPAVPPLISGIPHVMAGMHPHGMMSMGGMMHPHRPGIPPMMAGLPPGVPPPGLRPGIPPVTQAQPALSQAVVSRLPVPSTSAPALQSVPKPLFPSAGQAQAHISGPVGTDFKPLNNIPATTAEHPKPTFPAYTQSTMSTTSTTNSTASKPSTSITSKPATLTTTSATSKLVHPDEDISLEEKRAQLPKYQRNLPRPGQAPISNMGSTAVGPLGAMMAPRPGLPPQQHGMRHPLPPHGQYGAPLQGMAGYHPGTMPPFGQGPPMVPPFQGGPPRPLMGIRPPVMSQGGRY

For B1, in the assay with YFP-xBuGZ (full length) [1], the binding result is given as “binds”.

B2: the binding result with YFP-xBuGZ (full length) [2] and with YFP-xBuGZΔN7 was “binds” throughout.

For the molecule B3, the binding result with YFP-xBuGZ (full length) [1] is reported as “binds”.

Consider B4, for which, in assay [3], the binding result was “binds”.
